Measured values reported in PMC3483115 (The Journal of General Physiology, 2012).

Molecular target: calmodulin (CaM), wild type (UniProt P0DP23 1-149)
Test: SEC

binding result: binds
B1: TRPV1-CT35 (TRPV1 C-terminal residues 767–801) (peptide)
chain: EGVKRTLSFSLRSGRVSGRNWKNFALVPLLRDAST
